Test results taken from US20220135701A1 (Genentech, published 2022).
Substitutions are numbered along the chain they refer to. Numbers in names are those of the source.

B1: h13B4.V1 HC F91Y (antibody, name in Kabat numbering, V domains shown)
VH: EQQLVESGEGLVQPGGSLRLSCAVSGFSLSSYAMGWVRQAPGKGLEWIGIINSYGNTYYANWAKGRFTISRDSSKNTVYLQMGSLRAEDMAVYYCARDPGVSSNLWGPGTLVTVSS
VL: DVQMTQSPSTLSASVGDRVTITCQASQNIYSGLAWYQQKPGKPPKLLIYGASKLASGVPSRFSGSGSGTEFTLTISSLQPDDFATYYCQATYYSSNSVAFGGGTKVEIK
notes: Framework variant of h13B4.v1 (human IgG1)
B2: h13B4.V1 HC G49S (antibody, human IgG1, name in Kabat numbering, V domains shown)
VH: B1 VH with G49S, Y94F
VL: B1 VL
notes: as for B1
B3: h13B4.V1 HC W47Y (antibody, human IgG1, name in Kabat numbering, V domains shown)
VH: B1 VH with W47Y, Y94F
VL: B1 VL
notes: as for B1
B4: h13B4.V1 LC V21 (antibody, human IgG1, V domains shown)
VH: B1 VH with Y94F
VL: B1 VL with V2I
notes: Framework variant of h13B4.v1 (human IgG1); read as V2I (V at VL position 2 in v1, I in v16); also called LC V2I
B5: h13B4.V1 HC V24A (antibody, human IgG1, name in Kabat numbering, V domains shown)
VH: B1 VH with V24A, Y94F
VL: B1 VL
notes: as for B1
B6: h13B4.V1 HC Q2V (antibody, human IgG1, name in Kabat numbering, V domains shown)
VH: B1 VH with Q2V, Y94F
VL: B1 VL
notes: as for B1
B7: h13B4.V1 LC P43A (antibody, human IgG1, name in Kabat numbering, V domains shown)
VH: B1 VH with Y94F
VL: B1 VL with P43A
notes: as for B1
B8: h13B4.V1 HC I48V (antibody, human IgG1, name in Kabat numbering, V domains shown)
VH: B1 VH with I48V, Y94F
VL: B1 VL
notes: as for B1
B9: h13B4.V1 HC P105R (antibody, name in Kabat numbering, V domains shown)
VH: B1 VH with Y94F, P108R
VL: B1 VL
notes: as for B1
B10: h13B4.V1 HC S73N (antibody, human IgG1, name in Kabat numbering, V domains shown)
VH: B1 VH with S73N, Y94F
VL: B1 VL
notes: as for B1
B11: h13B4.V1 HC V78L (antibody, human IgG1, name in Kabat numbering, V domains shown)
VH: B1 VH with V78L, Y94F
VL: B1 VL
notes: as for B1
B12: h10F7.V1 HC F91Y (antibody, name in Kabat numbering, V domains shown)
VH: EQQLVESGGGLVQPGGSLRLSCAVSGFSLSGYAMSWVRQAPGKGLEYIGVISSSGSSYYPSWAKGRFTISKDSSKNTVYLQMGSLRAEDMAVYYCARVQFYVGYAVYGYGIIDRLDLWGQGTLVTVSS
VL: DAVLTQSPDSLAVSLGERATINCQSSKSVYNNNWLSWYQQKPGQPPKLLIYRASTLESGVPDRFSGSGSGTDFTLTISSLQAEDVAVYFCAGGYSSSSSANAFGGGTKVEIK
notes: Framework variant of h10F7.v1 (human IgG1)
B13: h10F7.V1 HC K71R (antibody, human IgG1, name in Kabat numbering, V domains shown)
VH: B12 VH with K71R, Y94F
VL: B12 VL
notes: as for B12
B14: h10F7.V1 HC S73N (antibody, human IgG1, name in Kabat numbering, V domains shown)
VH: B12 VH with S73N, Y94F
VL: B12 VL
notes: as for B12
B15: h10F7.V1 HC I48V (antibody, human IgG1, name in Kabat numbering, V domains shown)
VH: B12 VH with I48V, Y94F
VL: B12 VL
notes: as for B12
B16: h10F7.V1 LC F87Y (antibody, name in Kabat numbering, V domains shown)
VH: B12 VH with Y94F
VL: B12 VL with F89Y
notes: as for B12
B17: h10F7.V1 LC A2I (antibody, human IgG1, name in Kabat numbering, V domains shown)
VH: B12 VH with Y94F
VL: B12 VL with A2I
notes: as for B12
B18: h10F7.V1 LC L4M (antibody, human IgG1, name in Kabat numbering, V domains shown)
VH: B12 VH with Y94F
VL: B12 VL with L4M
notes: as for B12
B19: h10F7.V1 HC G49S (antibody, human IgG1, name in Kabat numbering, V domains shown)
VH: B12 VH with G49S, Y94F
VL: B12 VL
notes: as for B12
B20: h10F7.V1 HC V24A (antibody, human IgG1, name in Kabat numbering, V domains shown)
VH: B12 VH with V24A, Y94F
VL: B12 VL
notes: as for B12
B21: h10F7.V1 HC V78L (antibody, human IgG1, name in Kabat numbering, V domains shown)
VH: B12 VH with V78L, Y94F
VL: B12 VL
notes: as for B12
B22: h10F7.V1 HC Q2V (antibody, human IgG1, name in Kabat numbering, V domains shown)
VH: B12 VH with Q2V, Y94F
VL: B12 VL
notes: as for B12
B23: h9E3.FN.V1 HC F91Y (antibody, name in Kabat numbering, V domains shown)
VH: EQQLVESGGGLIQPGGSLRLSCAVSGFSLSSNAMSWVRQAPGKGLEWIGIISSSGSTYSASWAKGRFTISKDSSKNTMYLQMNSLRAEDTAVYYCARVGFFVGYGAYDYGIIHRLDLWGQGTLVTVSS
VL: DAQLTQSPSTLSASVGDRVTITCQSSKSIYNNNWLSWYQQKPGKPPKLLIYDASDLASGVPSRFSGSGSGTEFTLTISSLQPDDFATYYCAGGYSGDSDYAFGGGTKVEIK
notes: Framework variant of h9E3.FN.v1 (human IgG1)
B24: h9E3.FN.V1 HC G49S (antibody, human IgG1, name in Kabat numbering, V domains shown)
VH: B23 VH with G49S, Y94F
VL: B23 VL
notes: as for B23
B25: h9E3.FN.V1 HC S73N (antibody, human IgG1, name in Kabat numbering, V domains shown)
VH: B23 VH with S73N, Y94F
VL: B23 VL
notes: as for B23
B26: h9E3.FN.V1 HC M78L (antibody, human IgG1, name in Kabat numbering, V domains shown)
VH: B23 VH with M78L, Y94F
VL: B23 VL
notes: as for B23
B27: h9E3.FN.V1 HC Q2V (antibody, human IgG1, name in Kabat numbering, V domains shown)
VH: B23 VH with Q2V, Y94F
VL: B23 VL
notes: as for B23
B28: h9E3.FN.V1 HC K71R (antibody, human IgG1, name in Kabat numbering, V domains shown)
VH: B23 VH with K71R, Y94F
VL: B23 VL
notes: as for B23
B29: h9E3.FN.V1 HC I48V (antibody, human IgG1, name in Kabat numbering, V domains shown)
VH: B23 VH with I48V, Y94F
VL: B23 VL
notes: as for B23
B30: h10C3.V1 HC F91Y (antibody, name in Kabat numbering, V domains shown)
VH: EQQLVESGGGLVQPGGSLRLSCAASGFSLSGYTMGWVRQAPGKGLEYIGVISSGGTTYYTNWAKGRFTISKDSSKNTVYLQMGSLRAEDMAVYYCARVAFTAYGGGGFPTLHRLDLWGQGTLVTVSS
VL: DQVLTQSPDSLAVSLGERATINCQSSESVYNNDYLAWYQQKPGQPPKLLIYSASTLASGVPDRFSGSGSGTDFTLTISSLQAEDVAVYYCAGGYLGNNVFGGGTKVEIK
notes: Framework variant of h10C3.v1 (human IgG1)
B31: h10C3.V1 HC S73N (antibody, human IgG1, name in Kabat numbering, V domains shown)
VH: B30 VH with S73N, Y94F
VL: B30 VL
notes: as for B30
B32: h10C3.V1 HC G49S (antibody, human IgG1, name in Kabat numbering, V domains shown)
VH: B30 VH with G49S, Y94F
VL: B30 VL
notes: as for B30
B33: h10C3.V1 LC Q2I (antibody, human IgG1, name in Kabat numbering, V domains shown)
VH: B30 VH with Y94F
VL: B30 VL with Q2I
notes: as for B30
B34: h10C3.V1 LC L4M (antibody, human IgG1, name in Kabat numbering, V domains shown)
VH: B30 VH with Y94F
VL: B30 VL with L4M
notes: as for B30
B35: h10C3.V1 HC I48V (antibody, human IgG1, name in Kabat numbering, V domains shown)
VH: B30 VH with I48V, Y94F
VL: B30 VL
notes: as for B30
B36: h10C3.V1 HC K71R (antibody, human IgG1, name in Kabat numbering, V domains shown)
VH: B30 VH with K71R, Y94F
VL: B30 VL
notes: as for B30
B37: h10C3.V1 HC V78L (antibody, human IgG1, name in Kabat numbering, V domains shown)
VH: B30 VH with V78L, Y94F
VL: B30 VL
notes: as for B30
B38: h10C3.V1 HC Q2V (antibody, human IgG1, name in Kabat numbering, V domains shown)
VH: B30 VH with Q2V, Y94F
VL: B30 VL
notes: as for B30

biological target: T1, human MerTK (human, UniProt Q12866 26-499); test: SPR BIAcore T200, Ab captured, 37C
T1 construct: also called HuMER
T1 sequence: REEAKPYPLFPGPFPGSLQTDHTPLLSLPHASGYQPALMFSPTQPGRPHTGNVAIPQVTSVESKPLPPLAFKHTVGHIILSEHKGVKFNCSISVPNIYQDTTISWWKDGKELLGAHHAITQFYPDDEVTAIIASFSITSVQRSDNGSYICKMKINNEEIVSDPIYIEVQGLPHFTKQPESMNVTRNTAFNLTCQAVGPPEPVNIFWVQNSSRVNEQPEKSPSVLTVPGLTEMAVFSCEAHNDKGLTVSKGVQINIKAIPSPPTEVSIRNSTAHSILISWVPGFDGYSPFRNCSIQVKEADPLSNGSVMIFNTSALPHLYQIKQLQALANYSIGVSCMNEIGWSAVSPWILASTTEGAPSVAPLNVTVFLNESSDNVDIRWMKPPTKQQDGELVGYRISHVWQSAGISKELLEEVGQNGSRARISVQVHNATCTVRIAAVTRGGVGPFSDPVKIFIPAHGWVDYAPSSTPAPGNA
Method: Each humanized mutation variant was subject to BIAcore analysis to determine the important rabbit residues for binding and stability. Binding affinity determinations were obtained using Surface Plasmon Resonance (SRP) measurements from a BIAcore™-T200 instrument. Briefly, each humanized mutation variant antibody was captured to achieve approximately 100 RU (Response Units). Then, 3-fold serial dilutions of human MerTK (0.4 nM to 100 nM) diluted in HBS-EP buffer (0.01M HEPES pH 7.4, 0.15M NaCl, 3 mM EDTA and 0.05% v/v surfactant P20) was injected into the BIAcore™-T200 instrument at 37° C. with a flow rate of 30 μl/min. Association rates (kₒₙ) and dissociation rates (koff) were calculated using a simple one-to-one Langmuir binding model (BIAcore T200 evaluation software version 2.0). The equilibrium dissociation constant (KD) was calculated as the ratio koff/kₒₙ.

In order of rising Kd:
1. B3  3.1 nM
2. B9  4.2 nM
3. B1  4.5 nM
4. B6  4.5 nM
5. B7  4.6 nM
6. B10  4.7 nM
7. B21  5.1 nM
8. B4  5.6 nM
9. B24  5.6 nM
10. B8  5.8 nM
11. B17  5.9 nM
12. B22  5.9 nM
13. B5  6 nM
14. B18  6.2 nM
15. B12  6.4 nM
16. B37  7.4 nM
17. B14  7.6 nM
18. B16  8.8 nM
19. B11  9.2 nM
20. B15  9.3 nM
21. B20  9.4 nM
22. B19  9.5 nM
23. B27  10.2 nM
24. B29  10.2 nM
25. B23  11.5 nM
26. B25  12.3 nM
27. B34  12.3 nM
28. B26  12.5 nM
29. B38  12.5 nM
30. B30  14.9 nM
31. B31  15 nM
32. B13  15.3 nM
33. B33  17.1 nM
34. B35  17.1 nM
35. B36  20 nM
36. B32  30.2 nM
37. B28  41.3 nM
38. B2  51.5 nM
